Here are results for four molecules from US20080267980A1 (published 2008).

Holding throughout (experiment): SPR
The target of assay [1] is T1, Human C3dg-biotin (human, UniProt P01024 955-1303, biotin (site not stated) in the SPR experiments).
The target in assay [2] is T1, Human C3dg-biotin. The source holds these as a separate data set.
Assay [3] deals with T1, Human C3dg-biotin. The source holds these as a separate data set.
The target of assay [4] is T1, Human C3dg-biotin. This is another data set of the same source.

Like-named read-outs stand apart in the source and are kept apart here.

T1 sequence (P01024 955-1303): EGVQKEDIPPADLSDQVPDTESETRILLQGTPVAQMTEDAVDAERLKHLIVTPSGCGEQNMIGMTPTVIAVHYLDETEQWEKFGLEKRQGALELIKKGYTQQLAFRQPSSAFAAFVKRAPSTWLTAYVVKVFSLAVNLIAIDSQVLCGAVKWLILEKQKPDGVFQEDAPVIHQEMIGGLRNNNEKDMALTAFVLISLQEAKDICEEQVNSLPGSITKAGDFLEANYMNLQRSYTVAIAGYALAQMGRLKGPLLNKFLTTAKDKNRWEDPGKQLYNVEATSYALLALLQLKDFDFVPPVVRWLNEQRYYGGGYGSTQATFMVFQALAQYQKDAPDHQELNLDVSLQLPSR

B1: DAF-CR2 (other)
chain: DCGLPPDVPNAQPALEGRTSFPEDTVITYKCEESFVKIPGEKDSVICLKGSQWSDIEEFCNRSCEVPTRLNSASLKQPYITQNYFPVGTVVEYECRPGYRREPSLSPKLTCLQNLKWSTAVEFCKKKSCPNPGEIRNGQIDVPGGILFGATISFSCNTGYKLFGSTSSFCLISGSSVQWSDPLPECREIYCPAPPQIDNGIIQGERDHYGYRQSVTYACNKGFTMIGEHSIYCTVNNDEGEWSGPPPECRSSGGGGSGGGGSGGGGSISCGSPPPILNGRISYYSTPIAVGTVIRYSCSGTFRLIGEKSLLCITKDKVDGTWDKPAPKCEYFNKYSSCPEPIVPGGYKIRGSTPYRHGDSVTFACKTNFSMNGNKSVWCQANNMWGPTRLPTCVSVFPLECPALPMIHNGHHTSENVGSIAPGLSVTYSCESGYLLVGEKIINCLSSGKWSAVPPTCEEARCKSLGRFPNGKVKEPPILRVGVTANFFCDEGYRLQGPPSSRCVIAGQGVAWTKMPVC
Usually Kd stands for a measure of binding affinity in units of concentration. Regarding B1, binding in assay [1] was put at a Kd of 2600 nM.

B2: CD59-CR2 (other)
chain: LQCYNCPNPTADCKTAVNCSSDFDACLITKAGLQVYNKCWKFEHCNFNDVTTRLRENELTYYCCKKDLCNFNEQLENSSGGGGSGGGGSGGGGSISCGSPPPILNGRISYYSTPIAVGTVIRYSCSGTFRLIGEKSLLCITKDKVDGTWDKPAPKCEYFNKYSSCPEPIVPGGYKIRGSTPYRHGDSVTFACKTNFSMNGNKSVWCQANNMWGPTRLPTCVSVFPLECPALPMIHNGHHTSENVGSIAPGLSVTYSCESGYLLVGEKIINCLSSGKWSAVPPTCEEARCKSLGRFPNGKVKEPPILRVGVTANFFCDEGYRLQGPPSSRC
Regarding B2, in assay [2], binding was put at a Kd of 451 nM.

B3: CR2-CD59 (other)
chain: ISCGSPPPILNGRISYYSTPIAVGTVIRYSCSGTFRLIGEKSLLCITKDKVDGTWDKPAPKCEYFNKYSSCPEPIVPGGYKIRGSTPYRHGDSVTFACKTNFSMNGNKSVWCQANNMWGPTRLPTCVSVFPLECPALPMIHNGHHTSENVGSIAPGLSVTYSCESGYLLVGEKIINCLSSGKWSAVPPTCEEARCKSLGRFPNGKVKEPPILRVGVTANFFCDEGYRLQGPPSSRCVIAGQGVAWTKMPVCSGGGGSLQCYNCPNPTADCKTAVNCSSDFDACLITKAGLQVYNKCWKFEHCNFNDVTTRLRENELTYYCCKKDLCNFNEQLEN
On to B3, for which binding in assay [3] was characterised by a dissociation constant (Kd) of 15.5 nM.

B4: CR2-DAF (other)
chain: ISCGSPPPILNGRISYYSTPIAVGTVIRYSCSGTFRLIGEKSLLCITKDKVDGTWDKPAPKCEYFNKYSSCPEPIVPGGYKIRGSTPYRHGDSVTFACKTNFSMNGNKSVWCQANNMWGPTRLPTCVSVFPLECPALPMIHNGHHTSENVGSIAPGLSVTYSCESGYLLVGEKIINCLSSGKWSAVPPTCEEARCKSLGRFPNGKVKEPPILRVGVTANFFCDEGYRLQGPPSSRCVIAGQGVAWTKMPVCGGGSGGGGSDCGLPPDVPNAQPALEGRTSFPEDTVITYKCEESFVKIPGEKDSVICLKGSQWSDIEEFCNRSCEVPTRLNSASLKQPYITQNYFPVGTVVEYECRPGYRREPSLSPKLTCLQNLKWSTAVEFCKKKSCPNPGEIRNGQIDVPGGILFGATISFSCNTGYKLFGSTSSFCLISGSSVQWSDPLPECREIYCPAPPQIDNGIIQGERDHYGYRQSVTYACNKGFTMIGEHSIYCTV
Regarding B4, the Kd in assay [4] stood at 129 nM.
